{
  "source": "the supplement of paper PMC12764529",
  "note": "± gives the half width of the 95% confidence interval.",
  "data": [
    {"assay": "folding stability dG unfold from chymotrypsin proteolysis; higher = more stable", "summary_of_the_method": "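Designed mini-proteins with no cysteine and under 80 residues were kept only if AlphaFold2 dimer inter-PAE was above 15. In a PA-tagged cDNA display construct, they were digested with trypsin and chymotrypsin and then sequenced. K50 was inferred by Bayesian fitting of counts, and unfolding free energy was derived per protease or combined against a sequence-predicted unfolded-state K50 and a shared folded-state K50.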", "units": {"folding stability dG unfold": "kcal/mol"}, "values": [
      {"sequence": "SAGGSAMPVEFPSEGVVEAVNPKTGKVYLIRYETGDTKTRFVIFEPGTGEVRVIDEDTTFEEAVEDSAGGSA [r15_234_TrMRF]", "folding stability dG unfold": "0.382 ± 0.16"},
      {"sequence": "SYIKIPFNVWMPPDNAEAMAEEFANNLAQKHGWKIKGIKPVEPVPSPDGEWYPFRVSITIRMPDPEAINASA [r9_302_TrROS]", "folding stability dG unfold": "2.07 ± 0.13"},
      {"sequence": "SAGGSAKWLPAEELADELADTLMQRHGYEIKNVDVEVIDPDEGYIRVNIEYEHPGGRHKHDIIIPVSAGGSA [r15_32_TrROS]", "folding stability dG unfold": "0.851 ± 0.092"},
      {"sequence": "SGLKPNEVKKFTFSFPVTDPVTGKEVTATVELYVSAGNPFVVVKLTVTPPDGKTETKTFVVPPGATLTIDSA [r9_88_TrMRF]", "folding stability dG unfold": "3.598 ± 0.028"},
      {"sequence": "SAGGSAGGSEVKTITLTIKNKETNKEIKIEVQVFKNEDGELVFIAKAEITYNGKKYTFTVLLPSAGGSAGGS [r12_619_TrROS_Hall]", "folding stability dG unfold": "4.38 ± 0.16"},
      {"sequence": "SAGGSAGGSAGGGIKIKIISVKPLPDGSVLVKAKIIFPDGKEKEILILFNKNGEIKIFEKSAGGSAGGSAGG [r7_860_TrMRF]", "folding stability dG unfold": "4.03 ± 0.069"},
      {"sequence": "SMSEVVEESEFNGEKVITIKVTLPDGTPVTVTITLSPEGEGTVTTVPPSSSTSTTTTVPVSQVDEVLEALSA [r9_91_JUSTAS]", "folding stability dG unfold": "1.4 ± 0.031"},
      {"sequence": "SAMKPGEKVKIKIITFEKKKDPKTGEEKIEMKEIEIEATITEVEEKDGKVTVKIKIENLPPGAMIIIEKSAG [r14_412_TrROS_Hall]", "folding stability dG unfold": "3.64 ± 0.087"},
      {"sequence": "SAGGSAGGSAGRAEIPITFNGKKVEVEVEPDPDNGHPIITIKFGNKPVVINPDGQIRPFPSAGGSAGGSAGG [r11_732_TrROS]", "folding stability dG unfold": "-0.0926 ± 0.47"},
      {"sequence": "SSPEEDLEEIEITVTNPNDPRPSFVKVTRSPEGYEATFTLPDGKTVKIPPELGLEEIKKLPSSFTITILPSA [r9_781_JUSTAS]", "folding stability dG unfold": "0.83 ± 0.087"},
      {"sequence": "SAMTEEEKKKKKEEEEKKKRELKIIVVAKTKDGKWKKIAEFTVKNKDMSIEELVKKLKDLGVEEVKIFPSAG [r14_318_TrROS_Hall]", "folding stability dG unfold": "3.09 ± 0.093"},
      {"sequence": "SAHRIMIMFDSPEQAEEIIRKIAEEMGWKPKNIDVEVHPFPVTRPTPDGKKEEHPMYWVTIEIKLKPKKSAG [r14_773_TrROS]", "folding stability dG unfold": "2.84 ± 0.096"},
      {"sequence": "SAGGSAGGSVRIPGGQPNTKVTVTVRLPDGTPVEVEATVNPSGEITLDLPDVSPDLIESIELSSAGGSAGGS [r12_477_JUSTAS]", "folding stability dG unfold": "0.478 ± 0.027"},
      {"sequence": "SAGGSGEVRPLELEFTLPNGAKIKITLHVYPDGTVKVEARIEFGGEYLELRFEFEGEKVPLDFPDFGSAGGS [r16_523_TrMRF]", "folding stability dG unfold": "3.73 ± 0.11"},
      {"sequence": "SAGGSNVEVERHPDGHMTFTFPDEDGKDVKITIHMHPDGMYMIRVPGNNQPIYFPPGQSIEDLLKLSAGGSA [r2_338_TrROS]", "folding stability dG unfold": "2.88 ± 0.032"},
      {"sequence": "SAGGSAGGMTFTFPPGARVRIAIYNKNGELIEEREIDEPGAKITIEKDEETGEWRIVSIELLEPSAGGSAGG [r6_523_TrROS_Hall]", "folding stability dG unfold": "3.76 ± 0.05"},
      {"sequence": "SGMDTVTPTTSTTQYFVEPNPEPVLSISTTTDTTTDPANPGVVTVTTTTTITDPRTGTTTTTPTTTTVPASA [r9_342_JUSTAS]", "folding stability dG unfold": "-0.564 ± 0.14"},
      {"sequence": "LDPNKPENIALLEKVEEAAKAVIEELEKAGYKVEKLYVALGPNGIKIAPVTIPPEFIEELKKAGILVIPVLS [r1_134_TrMRF]", "folding stability dG unfold": "1.64 ± 0.14"},
      {"sequence": "SKIRIIRPERSLEIDLPKSARIEFDPETRRIYFINPDGERLEFPLGPNAVIIPGDDEITIIDPPASPENPSA [r9_653_TrMRF]", "folding stability dG unfold": "3.68 ± 0.042"},
      {"sequence": "SAGGSAGGMTIEVTFPDGTKLTITLENDGPDTLLATAEVEAPRAGGPSIPKEVAAKLAEELLASSAGGSAGG [r6_234_TrMRF]", "folding stability dG unfold": "1.62 ± 0.081"},
      {"sequence": "SAGGEKIKEALEKVPGLEIVKVEKKDGKVYIHIKAKSEEQRKKAAEALKKLPGIKEVKIEVIPEEELSAGGS [r16_671_TrROS_Hall]", "folding stability dG unfold": "2.88 ± 0.064"},
      {"sequence": "SAGGSAGGIMIDSPEQMEEFAKDFFQNGYHEVPIHVMDPNGNWQTFPFTIEVPPPKPEPDPGKKSAGGSAGG [r6_258_TrROS]", "folding stability dG unfold": "0.411 ± 0.25"},
      {"sequence": "SAGGSAMKLTFTDSKGRTIEITVEKKYLPNGEPYLIITIKYPDTDEEIVITMPTSNIDEILEKLLNSAGGSA [r15_92_JUSTAS]", "folding stability dG unfold": "4.28 ± 0.11"},
      {"sequence": "SAGGSAKKKVTITVEKKGDKYLVTIEVDGKTVVIEVPKDTTIEEIAAALPPGAKIKEIKVVKAEELSAGGSA [r15_1058_TrROS_Hall]", "folding stability dG unfold": "1.33 ± 0.031"},
      {"sequence": "SAMPLDDLPAEQIRELVRSIMRKHGMPPDNVEVDVEVQRPPDGYYYITVDVEMRMNGKERKYKFTIWIPSAG [r14_703_TrROS]", "folding stability dG unfold": "4.17 ± 0.05"},
      {"sequence": "SAARKIAKKLKEAFPNFPIKDIEITEYEPNPNGRPYMNISIQFPNGGKMEIQFDDPEHPEIREAIREIMSAG [r14_143_TrROS]", "folding stability dG unfold": "1.69 ± 0.086"},
      {"sequence": "SAGGSAGGPVKIHVHVNPEEGYYMIEVRSGNEPRHIMIPMDKEEIKSFIENLPPGIEVEIHPMPSAGGSAGG [r6_401_TrROS]", "folding stability dG unfold": "1.19 ± 0.072"},
      {"sequence": "SAGGMADEELANMSLEEVIAAVKEAGAKTVTVTFPDGSTLTIDLGDDGVVTVTLTTPPGEKETFEIPSAGGS [r8_51_TrMRF]", "folding stability dG unfold": "2.73 ± 0.088"},
      {"sequence": "SAGGMLVRVTLPSGETVELPVTSLDAAARRLREELGLPAGARLRVEVYDPVTGEVTEYELVIPVPEPVSAGG [r13_145_TrMRF]", "folding stability dG unfold": "4.33 ± 0.062"},
      {"sequence": "SAMEIEIEPLEKEELLKLPGAEIRLFYFPDRVLAEILLPDGTPFFVEFDPSLKPEEVLEKLLKLLEELGSAG [r14_618_TrMRF]", "folding stability dG unfold": "4.29 ± 0.1"},
      {"sequence": "SAGKMKIISVKIENNTITIEIYKDGKKIKKIEIKKNKKKIIIKIEIEPGEEIKIKIEINGKTYEITIKPSAG [r5_533_TrROS_Hall]", "folding stability dG unfold": "4.64 ± 0.23"},
      {"sequence": "SAGGSAAVDLSERPPALPVPLKVEVIPIPETGSSLVLVTHPDGFVLLARVNPEGEVELLSAFSLDDSAGGSA [r15_790_TrMRF]", "folding stability dG unfold": "2.86 ± 0.074"}
    ]}
  ]
}
